One test concerns the target T1, J08 B.HXB2/BALV1V2 (HIV-1).
T1 construct: also called J08 B.HXB/BAL V1V2
T1 chain: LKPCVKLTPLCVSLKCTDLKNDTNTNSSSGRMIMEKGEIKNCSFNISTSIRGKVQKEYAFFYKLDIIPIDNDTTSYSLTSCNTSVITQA
Description: ELISA, mAb 0.001-100 ug/ml on coated V1V2 scaffold, OD450. (An ELISA detects its analyte on a solid surface through an enzyme-linked reagent.)

Test [1] deals with T2, J08 B.HXB2/BALV1V2N156QN160Q (HIV-1).
T2 chain: T1 chain with N41Q, N45Q
Described as above.

The target in test [2] is T3, gp70 B.HXB2/BALV1V2/N156QN160Q (murine leukemia virus; HIV-1).
T3 chain: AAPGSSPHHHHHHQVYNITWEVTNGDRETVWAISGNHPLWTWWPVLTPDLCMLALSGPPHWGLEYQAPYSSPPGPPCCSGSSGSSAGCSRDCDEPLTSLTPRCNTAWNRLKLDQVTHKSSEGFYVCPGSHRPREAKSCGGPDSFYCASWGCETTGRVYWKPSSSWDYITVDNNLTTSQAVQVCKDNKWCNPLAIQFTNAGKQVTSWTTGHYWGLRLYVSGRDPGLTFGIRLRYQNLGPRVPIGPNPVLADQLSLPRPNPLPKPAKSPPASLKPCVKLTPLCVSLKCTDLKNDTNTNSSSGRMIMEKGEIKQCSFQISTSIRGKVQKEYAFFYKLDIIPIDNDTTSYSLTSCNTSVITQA
The description is as above.

Another test deals with T4, gp70 B.HXB2/BALV1V2 (murine leukemia virus; HIV-1).
T4 chain: T3 chain with Q311N, Q315N
Described as above.

For test [3], the target named is T5, J08 A.92RW020V1V2/N156QN160Q (HIV-1).
T5 construct: also called J08 A.92RW020VV1V2/N156QN160Q
Described as above.

The target of a further test is A.Q23 V1V2 tags (HIV-1). Kind of test: ELISA OD405nm, bar chart, antibody concentration not given.
For test [4], the target named is T6, B.62357 140C.
T6 construct: also called B.62357 gp140C
Described as above.

Another test addresses T7, G.con 140CF.
T7 construct: also called G.con gp140CF; G.con.env03 gp140CF
The description is as above.

Another test concerns the target D.9009SA V1V2 Tags. Described as above.
In another test the target is T8, AE.con env03 40CF.
T8 construct: also called AE.con gp140CF; AE.con.env03 gp140CF
The test is described as above.

For the next test, the target named is B.040 gp140C. Described as above.
Another test concerns the target B.9021 gp140C (HIV-1). The description is as above.
The next test addresses T9, A.9004SS V1V2 Tags.
T9 V1V2 tags construct: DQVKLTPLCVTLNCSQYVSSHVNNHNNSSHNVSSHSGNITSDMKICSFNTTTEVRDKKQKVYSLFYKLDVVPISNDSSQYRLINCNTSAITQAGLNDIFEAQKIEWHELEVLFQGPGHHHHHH
The description is as above.

Another test concerns the target T10, Con 6 120.
T10 construct: also called Con 6 gp120
Described as above.

A further test concerns the target Env of SHIV-BaL (SHIV). Description: cell-based or functional assay.
Another test addresses Env of SHIV SF162P3 (SHIV). Kind of test: cell-based or functional assay.
In the next test the target is Env of SHIV-SF162P4 (SHIV). Description: cell-based or functional assay.
A further test concerns the target Env of SHIV-1157ipEL-p (SHIV). Kind of test: cell-based or functional assay.
A further test has as its target Env of SHIV-1157ipd3N4 (SHIV). Description: cell-based or functional assay.
The next test has as its target B. 681-7 gp140C. Description: ELISA, OD405.
Test [5] has as its target T11, B.62357 140C.
T11 construct: also called B.62357 gp140C
Description: ELISA, OD405.

Another test deals with Con 6 gp120. Description: ELISA, OD405.
The target of a further test is T12, C.1086 gp140.
T12 construct: also called C.1086gp140C
Kind of test: ELISA, OD405.

Another test has as its target T13, B.HXB/BAL gp140CFI (HIV-1, UniProt P04578 33-680).
T13 construct: also called B.HxB/Ba gp140 CFI
Description: ELISA, OD405.

A further test has as its target AE.A244 V1V2 Tags (HIV-1). Kind of test: ELISA.

Changes are numbered by the printed parent chain. Bounds are passed on as bounds.

B1: CH59 (antibody, V domains shown)
VH: EVQLVESGGGLVQPGRSLRLSCAASGFTFDDGAMHWVRQAPGKGLEWVSGISWNSNIIAYADSVKGRFTISRDNAKNSLYLEMNSLRVEDTALYYCAKDSPRGELPLNYWGQGTLVTVSS
VL: SYELTQPPSVSVSPGQTARITCSGDALPKNYAYWYQQKSGQAPVLVIYEDSKRPSGIPERFSGSSSGTMATLTISGAQVEDEADYYCYSTDSSGNHRVFGGGTKLTVL
notes: also called mAb CH59
B1: the binding result was “no binding (tested: 100 ug/ml)” with J08 B.HXB2/BALV1V2; “no binding (tested: 100 ug/ml)” in [1]; “no binding (tested: 100 ug/ml)” in test [2]; “no binding (tested: 100 ug/ml)” in the test with gp70 B.HXB2/BALV1V2; “no binding (tested: 100 ug/ml)” in test [3]; “no binding (tested: not given)” with A.Q23 V1V2 tags. Moreover, the binding result with B.62357 140C [4] is “no binding (tested: not given)”; in the test with G.con 140CF it was “no binding (tested: not given)”; in the test with D.9009SA V1V2 Tags, “binds”; with AE.con env03 40CF, “binds”; with B.040 gp140C, “no binding (tested: not given)”; with B.9021 gp140C it was “no binding (tested: not given)”. Moreover, the figures for the binding result with A.9004SS V1V2 Tags and with Con 6 120 were “binds” and “no binding (tested: not given)”, respectively. The “EC50, neutralization of SHIV B.BaL (tier 2)” value with Env of SHIV-BaL was greater than 50 µg/mL. Further, the “EC50, neutralization of SHIV B.SF162P3 (tier 2)” value with Env of SHIV SF162P3 is greater than 50 µg/mL. Further, the “EC50, neutralization of SHIV B.SF162P4 (tier 2)” value with Env of SHIV-SF162P4 is greater than 50 µg/mL. In addition, the “EC50, neutralization of SHIV C.1157ipEL-p (tier 1A)” value in the test with Env of SHIV-1157ipEL-p was 24.6 µg/mL. The “EC50, neutralization of SHIVC.1157ipd3N4 (tier 2)” value in the test with Env of SHIV-1157ipd3N4 was greater than 50 µg/mL.

B2: CH59 reverted unmutated ancestor antibody (antibody, V domains shown)
VH: B1 VH with G32Y, N56G, I57S, A59G, E82Q, V88A, L107F, N108D
VL: B1 VL with N30K
notes: also called CH59 RUA; CH59_RUA
Regarding B2, the binding result in the test with B. 681-7 gp140C, with B.62357 140C [5], in the test with Con 6 gp120, with C.1086 gp140 and in the test with B.HXB/BAL gp140CFI was “no binding (tested: 10 ug/ml)” each time.

B3: 697D (antibody, V domains shown)
VH: QVQLVQSGAEVKKPGSSVKVSCKASGGNFNTYTISWVRQAPGQGLEWMGRIIPIFGIVNPAQKFPGRVTINVDKSTNTAYMELSSLRSEDTAVYYCATSGVGLHFGYFDYWGQGTQVTVSS
VL: QSVLTQPPSVSGAPGQRVTISCTGSSSNIGAHYDVHWYQQLPGTAPKLLIYGNSNRPSGVPDRFSGSKSGTSASLAITGLQAEDEADYYCQSYDSSLSGYVFGTGTKVTVL
notes: also called mAb 697D; V2 conformational mAb 697D
Take B3: the EC50 (read off the curve) – broadly, the concentration at which the effect is half-maximal – in the test with AE.A244 V1V2 Tags was roughly 0.1 µg/mL.

Values taken from US9988424 (DUKE UNIVERSITY, dated 2018).
